Results: the NTF2 design screens of Basanta et al. (2020)

Test: protease stability score; higher = more stable; yeast display proteolysis, trypsin and chymotrypsin;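 further: relative to predicted unfolded state with 0 unfolded-like and 1 meaning tenfold more protease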

Sequence	protease stability score
SEREHLADRFVKELTTALQTGDEEKIREMFDPHMKLIINGVTFHGWEELEKIRKRVDHIEHVEVRIEDVRIINGVVEIKGELHVHERVGDKIIDRSNDQTYFVEKVNGRWILKQVELH	1.14
DEEEKESRLALEEFLTMMKTGDEDRFTELADPHARSHYNGREHHGREVFLDWFRRVKGLKVDLQHVKTFNGRIIIHVRFHYDGVTYYVEIFVEKFDGRWYLTRVHHI	0.421
DEKQDLWRHLLEQFFRWYQTGDEDLLFKYADPHVRFRQGDKEHHGREEMIRMLREHRHHFGADHFKVETMEIQGDKATFVMHDHVNGVDIEIRVHVVVIDGRIRSFKFERH	1.34
DEFEEAIKLVDDIRSFALLTGDEKELKHMADPNVKLDFNGVELVGMERVWKFFEEIRLVERHVHIKDRDVQGDKVRVDGRQDIEVQQGDKKSRMDIRLDIIIKKVDGRWIVHSLVLI	0.77
DENERRYNELSRLLFEWFLTGDEKMLSNFMDPNAKAEVNGKEEHGREELIRIYHDWLRKAGVDHIQPRHLETRHFDGRVHVHINVDVLINGKILHIHIDIDMVKIDGKWIIKHIRIHER	1.2
TEDDRAFELSMRKWLESHRTGDEKTMHELLDPNARYHIGEFHLHGWKEADRLVREIRIHHVEDKHVEIQGDKIRIHTRVDITINGQKSSVELELVLVKVNGVWFVHSVILR	1.8
DEHDEFLEISFKILKKTDDTGDERESRKLADPDARLHVNGVDFHGWEDFKKIMVDLGWRIEEIRIEHIRLVGDKIIIHERVRLRVGDKKRDLHFTIIALKINGRWHLRELHIE	1.38
DEEDEEFKRAMDDWIRAILTGDEQRVEELFDPNVRFQVNGKETVGRDFLIHYVREWRLDSKVDIKRSEVQGDKVRVDVTMKLTIDVNGQRIHDQHKVTIIAEKIDGRWEIKELIVH	0.676
DEEKELSKKLLEVFIKVMRTGDWRAFSERLDPHTRTDVNGVDIHGRENTLELLRRLEEEWGVSRVDVRIHDADHQGDYIKFDGIEIYNGVERRTRMVSEKFNGRWRNKIFILD	0.238
SDVDEKMETFLTLLFELIYTGDEEVIEKLFDPNVQLDVNGQIYHGMENVIEFVHQVKRHIRWKTVQIRHYRTQGEWAYSQVEVTGTVNGQSHRFEIHIDIWVINGKLKHIKKDIE	2.01
SEEEEKRRKSAEDFMRSLVTGDEDDLSRLADPHVRLDINGKEHHGMEEFKRLLSEFWEEMGIKHVRIRRIDIQGNKAILHTEVDWNGRIHEVTIDVQTYNGRIKSVKVIIH	1.24
REQEHEAKVAVDEWREDMETGDEHRLRELMDPDVRNIVGDKELHGREAVEFLITQIDHVKHIHVRHLDIQGDYIRFEGEINIHVNGRDRTLDVELYFIKINGRWHIHKLRFD	1.66
DEWHEYNEKLFELWEKANKTGDERLLRLLIDPHARLHFNGKHFHGREEVARLMTELRVDRFEIKRMEIQGEKLTVEGREDVTQGDFRFESNVNIIFLKINGRWSLERQHSE	0.944
DHVEEVVRQMVSHILRDYITGDEKSYASLMDPNMRLHIGDKDSIGREEVLRLIREHTRHLGIKHFHLHDVRIRIQGEYVEIKIDVHLEFNGRKFRVIIHLEMHKVNGRWRLHEETIEIE	2.61
SEEEKRAKKLIEIFMESIETGDWKEIHRMMDPTTRLEQGDYEHHGRDEIRELWLQELLDLGVERIRVKVHHVDVIDGKAHVDVTIHFNGVTQRRHYVIVKIDGRWMIKLVIIR	1.81
REEEQHAERFTKLFIEAFETGDWKELSRLLDPHARMEWNGRVHHGMEQIVEVLLKQFHDLGFRIEHVRIHDIRVQGEKIKVDVDIDGIVDGRREHWKVTLIILKVNGRWLTKEIEYR	1.31
SDEEENLKEWVRLMYESARTGDEDSTSHLIDPNVRIHVNGRELHGRELVLEHLRRIDHVELRIHIREVETYDGRLKVEGELREIMIFNGKRVDLRIDTVFINLKVNGRWVLKEVHII	1.34
DDDEKDLEKLIREVMEIIWTGDEDTFRHFMDPNTRLFIDGKIIVGMEEIMRRWHELLRKFGVDKIEVRLDDFKIIGNKIELHFEIMIGDKRFKTQTIFEKIDGRWILHSRFIH	2.01
SEEQHHLYSVFVRLIRNHWTGNERELHELADPNTRHTVGDKTYHGMEHVAWLLTEWVKEARLEIILRDVHVFDGRVESRIEFRLRYGDFKTTHEVRVEVNVVDGRLKEMEIDIN	1.43
DEDKKWVDEMIRLLLEYWRTGDEERIRQLADPNVRTHINGKEIHGMEIHLQYLREFMETFGVDHVELRIHHKDIQGDKIHLHVEIIYTVGDKEHRQEVHFRARKINGKWMIEHVEIK	1.25
SEDEKTTKDVFREIKEILLTGDWRALERLLDPHVRFDINGQEIHGRESILEYWLEQVRRLGIDHIEIRLHHIDVQGDKIHLDVRIIYRYGDKEYREETKFVIIKIDGKWHLKEYHVD	2.11
DEKREESERALNHLFKSMLTGDEEDVRKLADPHAKFIINGRSDIGRESVSHHWHRLWRELGVKHLDVRSFRVYDGRVDSKTRVEIGDKEHEMEVYIVKVNGRWHIEELEFR	-0.12
DEDERAIHVMLKLVKKAMDTGNEHMETELLDPNVRLDVNGRDVHGREEMRKFLNHHWKEWGVDRIIFLFESIHFQGDKVHIRGYVHINGKDFDVEFIASKVNGRWLVESRHLR	1.03
SEDEERSKLIIDLWEHTQSTGDESLIERLLDPDARSHWDGVHVHGRKATKIMIERIDYVERVDFKEIRTYDGRVEIHGTIDGNFNGRRREMEVIIFVVKVDGKWRIRSIRFT	1.3
SEDEEISERALRHVYKHLKTGDEDNFQKNFDPHVRFEAENVEFHGREASEHLSKRIDVIHRIIIRHHTIYNGVIVIHGEVDGEFNGKRDRDIVTIYYVKVNGQWQIRELKIG	0.891

Sequence	protease stability score
NELTEVIRYWIHLWLTQLFTGNEEIIRRLADPNARFEVNGREIHGMDEWVDILKRLGMRFHHFHVDTIEIIDGVIHVQSRFDIDINGRRVNEETYHVIEKINGRWTLRTMELR	2.31
DEDKQHAEKVWRLFSKFVNTGDEESLNRLFDPDVKLRVGDKEFHGREEFVKFMSELYRRIDHVHWHFSHIEVVGEYIIIHGHTIFEVGDKKDSRDTRLIMFKVNGRWHIHHIRIE	2.33
SEDDRDANNMREILQHLWFTGNEEEFLRLLDPDTLFHVNGQQKVGRERVEELLHHLLEKLGADHEEIHDWEVRLQGDKLDIHVHIRLIIGDKEFRIHIDFHIYKIDGRWRIHSVKLEIK	2.1
DEETEILKKVVKEMRKIMHTGDEHEIHRYLDPNARLDVDGREVHGREALLEFLRKFKGMTVHIDDVEDIGDKIFIDHELRFDGVTRKSEIISNKINGRWHVESVHIR	0.357
DEDTDWIREMHRRHTEALRTGDEDTLRDLMDPHVRIFQGDKIHIGMHDLAKFLKEWRIKEIRVDIKHIESQGDKLRFSGDVEVHFEFNGKEVDLKLKALIVIVKINGKWVFKEIHHI	0.862
SEDEHNAEIAIKIWLDTIRTGDWHKIENMADPNTRIDIGDKHFHGREEIVRLYIELVEKFPGMTFHVREVDVVGDKVDIHSHVVVGDKTFNLTIIITKVNGRWLLKKVRMESH	2.67
DEMEREVEKWVRIYLHALRTGDERILENMVDPEARTHINGRHDHGRDSLHKILKEMGFDHMHVEIRDVRVVNGQIHLEEIIRVDVDGRRITITVEVVIVKIDGRWIVKSFHIR	1.17
DEEEHEIRQAIELEIRLIETGDFKAMRKMADPHVRTHINIGDKRLDLHGRDFFEWWLRFVKGVTHRFEDFVSVGNKVHIIVQDQVGDKRYEVKIVFKKVDGRWRMTESEVHFE	1.83
SEEQELLKKLAHENHESQRTGDEDFFHKLADPDARIRVGDKEIHGMEKVLEFWKTFRRQFKGLVVHLEDSHVINGQTFLHRNVNFNGVEEELEIILVVVDGRIKSIEIHLRRR	0.653
SEEETHVKEAVKRSVDFLETGDERLFRELFDPNVRLIVNVGNKRVELHGWEEVVRWLREARLHRVILRTIRIQGDKAEVEGDVDGEINGRHDLHIIEWHFIVINGRFHSVSVRIE	1.05
DEEERSFELALRLLERTIKTGNEDDWRRMLDPHTKIIIGDKEFHGMEDAEKILREHIHRIDHFHDIHLHRIRVQGDKIHMDVRLDGRINGRRDILIARFTVVKVDGRWVIHQVESH	1.22
SSEEEDIEWATEVLVMSFITGDWKLSHKLMDPNVLSIVNGREFHGRELAVKHLHEMTEKIKGLRIETHDLKHINIFNGRARVHSIVRGDINGRKVDSMIDVITNKFDGRWVIESVQFI	1.45
SEEHKELRELIRITFEDLFTGDEDAFMRLFDPHTILHIGEKRYIGREIIIHALRWLGVDHMEIKHIDIQGEKVDMHMHLKVGDKSWTMHLHIEKFNGQWHSKHIEIR	1.95
DESTENLREFIRVLLHLWETGNEDEFLRMADPNALVYDEHEYDHGWKAWKKLLEQYDVVTSIIPRHIRLIGDKVDIHTNLYMLINGRTVEVHTELLVKKIDGQWRIKFFLIR	1.63
DEDTEQLEWILKLHLEISRTGDEHSEHHMVDPNTRIEVGDKELHGREEIVKWFAHIRIDHIDIKRYHIFNGRVRIDGRVEGNVDGRETTMRVIFLSDKFNGRWRHRSVIVR	1.53
SEEEELIEYILELWMHAYVTGDEDVVHEMADPNVRIQVGDKKFIGRKTFSETIHELLNRVDHFRLHIRDYKVINGKAIMHIELHYRVNGKDIHHHVDIDVHKINGRWIVKSIHYR	1.83
DEEEETIRKYIEMMIRLWETGDEKSMLDLFDPDVRTLVNGQHLHGRHALEILLRRIDVRRHVHLHHIDLQGNKVEIDSRLEGTVDGKRDDIELTHHMVKVDGQWVIHNVEVR	1.02
SEDEKVALEMLEWLSTARRTGDEHVMRELIDPHTRLHYGDKIYIGRDHVIELLLQLRVHIHHVELTHFESVGDKIKLHTEEDGHIDIDGRHHRVIIHTTMYARKFDGQWHTEEIRIH	1.93
DEERKETEEATRQDIHDFRTGDEKSFDEFFDPNVRLDINGVRVHGRELASKWFRDFFRELGVKHSEIEHREIQGEKAIVNEDVRVGDKRVEVILVYLKINGRWEITTVTLRHE	1.05
SEDEKVYLKLVEDWIRIWRTGDEDMAEKLADPNVKIIIGDKSTHGREEWTRVVRELRTTEFDAHSITVVDGVVELDGRSRGDINGVEMNSHFTFILYIVDGRLKSQEIEVH	2.03
DDREKFWKELAKEWFKSLITGDEDSLRKLLDPDVRTIVGDWHIHGMEEVLKFWLELRISDHDSKRIIVINGVNLNDIRSNGNVNGVERETRVELIIEVVDGRVRRVEFRMK	2.01
TEEREHDHRIFNLFLHWWMTGNEEEIHKYIDPNVRMRLDVNGVEIRDVGREMVMEMLRILYEFLGIDVSRIHSHDTQGDKVVLHGRNHVNGRDIEVHIEWKVINGKLKEVRIEIRER	1.57
HDREKLMEELVKNWIHLLKTGDEDQLHRLLDPHAKWDINGRELHGMEHINRRISEWRIEFNERHVEVIGEKIHIEGDLRVEIDGRRDEFHSEIELVIVNGRVKEIIVREG	0.895
DEEDEDIHRLFHELVEALLTGDERTLLRLIDPHARLIIGDKHFHGRELIVKIIYEMLRELRVHSINMHHIDVIGEKVVLDVHIHVEQGDKHRIIRVNIISKKIDGRWLIKSIKVH	1.16
SEEEELWEELKELSEEWFETGDEDRLLEMADPHVKVVFNGKHEHGREALRLVLETMKRRFKNATYHPHTIELQGEKVFLKIKVRVGDKEQELEIILIIVDGRLKEIRIHIRIK	2.62
